Source: patent publication US20230227527A1 (published 2023)
Residue numbers refer to the chain shown, from its start.

Assays:
[1] = molecular target: EBV LMP2 peptide on HLA-A11 (human); assay: intracellular IFN-gamma; peptide titration on K562-A11, E:T 1:1, overnight; FIG. 9; full-length, on cells; conditions: chains Valpha:Vbeta
[2] = molecular target: T1, EBV LMP2 peptide on HLA-A*02:01 (human); assay: intracellular IFN-gamma; peptide titration on APCs, E:T 1:1, overnight; FIG. 6F; full-length, on cells
T1 peptide: CLGGLLTMV

peptide on HLA-A*02:01 [3] = molecular target: T2, peptide on HLA-A*02:01 (human); assay: as above
T2 peptide: SLGGLLTMV

[4] = molecular target: T1, EBV LMP2 peptide on HLA-A*02:01; assay: intracellular IFN-gamma; peptide titration on APCs, E:T 1:1, overnight; a different experiment, FIG. 6G; full-length, on cells
peptide on HLA-A*02:01 [5] = molecular target: T2, peptide on HLA-A*02:01; assay: as above

B1: L11-3 (protein)
chain 1: GQQVMQIPQYQHVQEGEDFTTYCNSSTTLSNIQWYKQRPGGHPVFLIQLVKSGEVKKQKRLTFQFGEAKKNSSLHITATQTTDVGTYFCADPDGLIFGQGTELSVKP
chain 2: DAGVIQSPRHEVTEMGQEVTLRCKPISGHNSLFWYRQTMMRGLELLIYFNNNVPIDDSGMPEDRFSAKMPNASFSTLKIQPSEPRDSAVYFCASSLGAGAGYGYTFGSGTRLTVV
EC50 of peptide [1]: 0.3 nM

B2: L11-6 (protein)
chain 1: GIQVEQSPPDLILQEGANSTLRCNFSDSVNNLQWFHQNPWGQLINLFYIPSGTKQNGRLSATTVATERYSLLYISSSQTTDSGVYFCAVDGGNKLVFGAGTILRVKS
chain 2: B1 chain 2 with A100S, Y102W, G103E, Y104Q, T105Y, S108P, V115T
EC50 of peptide [1]: 2 nM

B3: L208 (TCR, V domains shown)
Valpha: KQEVTQIPAALSVPEGENLVLNCSFTDSAIYNLQWFRQDPGKGLTSLLLIQSSQREQTSGRLNASLDKSSGRSTLYIAASQPGDSATYLCAVLMDSNYQLIWGAGTKLIIKP
Vbeta: DAGITQSPRYKITETGRQVTLMCHQTWSHSYMFWYRQDLGHGLRLIYYSAAADITDKGEVPDGYVVSRSKTENFPLTLESATRSQTSVYFCASSEDGMNTEAFFGQGTRLTVV
EC50 of peptide [2]: 0.0392 mg/L | EC50 of peptide (peptide on HLA-A*02:01 [3]): 0.0183 mg/L | EC50 of peptide [4]: 0.261 mg/L | EC50 of peptide (peptide on HLA-A*02:01 [5]): 0.125 mg/L
